# Test results: PMC3974617 (Developmental cell, 2013)
# B1: full-length recombinant human VPS41 (His-hVPS41) (natural protein, UniProt P49754 1-854, looked up)
# chain: MAEAEEQETGSLEESTDESEEEESEEEPKLKYERLSNGVTEILQKDAASCMTVHDKFLALGTHYGKVYLLDVQGNITQKFDVSPVKINQISLDESGEHMGVCSEDGKVQVFGLYSGEEFHETFDCPIKIIAVHPHFVRSSCKQFVTGGKKLLLFERSWMNRWKSAVLHEGEGNIRSVKWRGHLIAWANNMGVKIFDIISKQRITNVPRDDISLRPDMYPCSLCWKDNVTLIIGWGTSVKVCSVKERHASEMRDLPSRYVEIVSQFETEFYISGLAPLCDQLVVLSYVKEISEKTEREYCARPRLDIIQPLSETCEEISSDALTVRGFQENECRDYHLEYSEGESLFYIVSPRDVVVAKERDQDDHIDWLLEKKKYEEALMAAEISQKNIKRHKILDIGLAYINHLVERGDYDIAARKCQKILGKNAALWEYEVYKFKEIGQLKAISPYLPRGDPVLKPLIYEMILHEFLESDYEGFATLIREWPGDLYNNSVIVQAVRDHLKKDSQNKTLLKTLAELYTYDKNYGNALEIYLTLRHKDVFQLIHKHNLFSSIKDKIVLLMDFDSEKAVDMLLDNEDKISIKKVVEELEDRPELQHVYLHKLFKRDHHKGQRYHEKQISLYAEYDRPNLLPFLRDSTHCPLEKALEICQQRNFVEETVYLLSRMGNSRSALKMIMEELHDVDKAIEFAKEQDDGELWEDLILYSIDKPPFITGLLNNIGTHVDPILLIHRIKEGMEIPNLRDSLVKILQDYNLQILLREGCKKILVADSLSLLKKMHRTQMKGVLVDEENICESCLSPILPSDAAKPFSVVVFHCRHMFHKECLPMPSMNSAAQFCNICSAKNRGPGSAILEMKK
# Molecular target: the molecule itself
# Assay: negative-stain EM
protein,measurement,value
B1,stoichiometry N,2
